Residue numbers refer to the chain shown, from its start. Names and notes keep the numbering of the source.
What was measured:
[1] = system: Lenti-X 293T cells; test: YFP fluorescence quenching anion reporter plate reader assay of engineered receptors stimulated with acetylcholine or a non-native ligand; format: cell-based; settings: for percent quench of YFP fluorescence, 10 uM ach: acetylcholine 10 uM; for percent quench of YFP fluorescence, 50 uM ach: acetylcholine 50 uM; for percent quench of YFP fluorescence, 100 uM ach: acetylcholine 100 uM; for percent quench of YFP fluorescence, 1 mM ach: acetylcholine 1 mM; for percent quench of YFP fluorescence, 3 mM ach: acetylcholine 3 mM
In short: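 Lenti-X 293T cells carrying a YFP anion reporter were transiently transfected with channel DNA and assayed the next day in HEPES-buffered ECS at pH 7.2. Ligand (acetylcholine or non-native ligand) was added in NaI-substituted ECS. Percent quench was the mean of the last 10 s relative to the 15 s pre-addition baseline.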

[2] = system: rat DRG neurons; test: Rheobase shift and evoked action potentials in rat DRG neurons (current clamp); format: cell-based
Protocol: Using whole cell manual patch clamp electrophysiology in HEK293 cells, rat DRG neurons and rat hippocampal neurons, the EC50 of the various engineered receptors disclosed herein to Ach and non-native ligands was measured using the Hill equation with peak current measurements from escalating doses of ligand. The rheobase shift was also measured in rat DRG neurons, which reflects the efficacy of the receptors. To calculate the rheobase, first, the amount of current that can produce an action potential was determined. Then the ligand was added, followed by a step wise increase in the current injected up to 700 pA.
For manual patch clamp experiments, Cells plated on coverslips were visualized at 10× and 40× on an inverted fluorescence microscope (Olympus). Recordings were made with an Axopatch 200B amplifier and Digidata 1550B (Molecular Devices) at RT using 3-6 MOhm glass patch electrodes (Sutter, BF150-86-10). Unless otherwise stated, recordings were made in extracellular solution (ECS) containing: 140 mM sodium chloride, 4 mM potassium chloride, 1 mM magnesium chloride, 2 mM calcium chloride, 10 mM HEPES, and 10 mM D-(+)-glucose (pH=7.3 with sodium hydroxide, osmolarity=305−315 mOsm). An 8-line reservoir (AutoMate Scientific) in combination with an 8-channel zero-dead-volume perfusion pencil (AutoMate Scientific) was used for perfusion. Data was acquired using pClamp software (Molecular Devices). Traces were either analyzed in Clampfit (Molecular Devices) or using custom Python code. Plotting and statistics were performed in GraphPad Prism.
DRG rheobase experiments were performed in current clamp mode using a potassium-based internal solution containing: 100 mM potassium D-gluconate, 28 mM potassium chloride, 1 mM magnesium chloride hexahydrate, 5 mM magnesium ATP, 10 mM HEPES, and 0.5 mM EGTA (pH=7.2 with potassium hydroxide, osmolarity=290-295 mOsm, calculated liquid junction potential=−13.5 mV). To measure DRG input resistance and rheobase, 500 ms current steps (−200 pA to 700 pA) were applied the membrane in the presence and absence of a compound. No holding current was applied to the membrane for cells included in the final datasets. Data were acquired at 10 kHz, with Bessel filter at 2 kHz and series resistance compensation at 100%. Rheobase was defined as the smallest depolarizing current injection required to cause an action potential to fire in the cell. In a subset of cells, the rheobase was ambiguous, since the action potential appeared to be graded in amplitude. In these cases, a […] of the trace clarified the rheobase. Input resistance was measured from the negative current injections, calculated as the difference in membrane potential at steady state divided by the current injection amplitude and then averaged across the four negative current steps for each recording. Resting membrane potential was measured from the first 100 ms of each sweep, averaged for each recording, and corrected for liquid junction potential. One-way ANOVA with multiple comparisons was used to test for significance of difference in rheobase and input resistance between baseline, drug, and wash conditions.

B1: CODA1025: engineered chimeric LGIC receptor, R101F, L131G in SEQ ID NO: 33 (protein)
chain: MRCSPGGVWLALAASLLHVSLQGEFQRKLYKELVKNYNPLERPVANDSQPLTVYFSLSLLQIMDVDEKNQVLTTNIWLQMSWTDHYLQWNVSEYPGVKTVFFPDGQIWKPDILLYNSADERFDATFHTNVGVNSSGHCQYLPPGIFKSSCPMDLKNFPMDVQTCKLKFGSWSYGGWSLDLQMQEADISGYIPNGEWDLVGIPGKRSERFYECCKEPYPDVTFTVTMRRRMGYYLIQMYIPSLLIVILSWISFWINMDAAPARVGLGITTVLTMTTQSSGSRASLPKVSYVKAIDIWMAVCLLFVFSALLEYAAVNFVSRQHKELLRFRRKRRHHKSPMLNLFQEDEAGEGRFNFSAYGMGPACLQAKDGISVKGANNSNTTNPPPAPSKSPEEMRKLFIQRAKKIDKISRIGFPMAFLIFNMFYWIIYKIVRREDVHNQ
modifications: synthetic sequence of chimeric LGIC
YFP fluorescence quenching using CNL001 ([1]; 1 nM CNL001, first column): −18.527%
YFP fluorescence quenching using CNL001 ([1]; 1 nM CNL001, second column): −21.577%
YFP fluorescence quenching using TC-5619/Bradanicline ([1]; 1 nM brd): −10.61%
YFP fluorescence quenching using TC-5619/Bradanicline ([1]; 3 nM brd): 2.63%
YFP fluorescence quenching using Varenicline ([1]; 3 nM var, first column): 48.074
YFP fluorescence quenching using Varenicline ([1]; 3 nM var, second column): 60.978
YFP fluorescence quenching using CNL001 ([1]; 10 nM CNL001, first column): 14.063%
YFP fluorescence quenching using CNL001 ([1]; 10 nM CNL001, second column): 49.818%
YFP fluorescence quenching using TC-5619/Bradanicline ([1]; 10 nM brd): 17.71%
YFP fluorescence quenching using TC-5619/Bradanicline ([1]; 30 nM brd): 68.48%
YFP fluorescence quenching using Facinicline ([1]; 30 nM fac): −8.99
YFP fluorescence quenching using Varenicline ([1]; 30 nM var, first column): 70.023
YFP fluorescence quenching using Varenicline ([1]; 30 nM var, second column): 69.433
YFP fluorescence quenching using CNL001 ([1]; 50 nM CNL001, first column): 77.765%
YFP fluorescence quenching using CNL001 ([1]; 50 nM CNL001, second column): 79.23%
YFP fluorescence quenching using ABT-126 ([1]; 50 nM abt): −11.53%
YFP fluorescence quenching using CNL001 ([1]; 100 nM CNL001, first column): 80.544%
YFP fluorescence quenching using CNL001 ([1]; 100 nM CNL001, second column): 80.695%
YFP fluorescence quenching using CNL002 ([1]; 100 nM CNL002): 12.48%
YFP fluorescence quenching using ABT-126 ([1]; 100 nM abt): −7.61%
YFP fluorescence quenching using AZD-0328 ([1]; 100 nM azd0328): 6.26%
YFP fluorescence quenching using ABT-126 ([1]; 300 nM abt): 6.55%
YFP fluorescence quenching using AZD-0328 ([1]; 300 nM azd0328): 37.98%
YFP fluorescence quenching using TC-5619/Bradanicline ([1]; 300 nM brd): 75.12%
YFP fluorescence quenching using Facinicline ([1]; 300 nM fac): 10.21
YFP fluorescence quenching using Varenicline ([1]; 300 nM var, first column): 78.989
YFP fluorescence quenching using Varenicline ([1]; 300 nM var, second column): 79.21
YFP fluorescence quenching using Varenicline ([1]; 500 nM var, first column): 79.212
YFP fluorescence quenching using Varenicline ([1]; 500 nM var, second column): 79.771
YFP fluorescence quenching using CNL001 ([1]; 1 uM CNL001, first column): 81.191%
YFP fluorescence quenching using CNL001 ([1]; 1 uM CNL001, second column): 82.385%
YFP fluorescence quenching using CNL002 ([1]; 1 uM CNL002): 46.04%
YFP fluorescence quenching using ABT-126 ([1]; 1 uM abt): 25.08%
YFP fluorescence quenching using TC-6987 ([1]; 1 uM tc6987): −13.32
YFP fluorescence quenching using Varenicline ([1]; 1 uM var, first column): 79.538
YFP fluorescence quenching using Varenicline ([1]; 1 uM var, second column): 80.577
YFP fluorescence quenching using TC-6987 ([1]; 10 uM tc6987): 43.71
YFP fluorescence quenching using CNL002 ([1]; 30 uM CNL002): 39.82%
YFP fluorescence quenching using AZD-0328 ([1]; 30 uM azd0328): 79.31%
YFP fluorescence quenching using Facinicline ([1]; 30 uM fac): 78.24
YFP fluorescence quenching using TC-6987 ([1]; 500 uM tc6987): 53.98
percent quench of YFP fluorescence, 30 nM TC-6683 ([1]; TC-6683 30 nM): −1.645%
percent quench of YFP fluorescence, 300 nM TC-6683 ([1]; TC-6683 300 nM): 3.043%
percent quench of YFP fluorescence, 3 uM TC-6683 ([1]; TC-6683 3 uM): 0.082%
percent quench of YFP fluorescence, 30 uM TC-6683 ([1]; TC-6683 30 uM): 2.449%
percent quench of YFP fluorescence, 100 uM TC-6683 ([1]; TC-6683 100 uM): 10.437%
percent quench of YFP fluorescence, 10 uM ach [1]: 12.57%
percent quench of YFP fluorescence, 50 uM ach [1]: −3.46%
percent quench of YFP fluorescence, 100 uM ach [1]: 12.65%
percent quench of YFP fluorescence, 300 uM ach ([1]; acetylcholine 300 uM): −6.96%
percent quench of YFP fluorescence, 500 uM ach ([1]; acetylcholine 500 uM): −6.77%
percent quench of YFP fluorescence, 1 mM ach [1]: 19.42%
percent quench of YFP fluorescence, 3 mM ach [1]: 65.06%
Rheobase Shift; Rat DRG Neurons, +TC-5619 @ EC90 ([2]; +TC-5619 @ EC90): 560 ± 72 pA
Rheobase Shift; Rat DRG Neurons, Baseline ([2]; Baseline, no ligand): 140 ± 19 pA

B2: CODA109: engineered chimeric LGIC receptor, S170T in SEQ ID NO: 33 (protein)
chain: B1 chain with F101R, G131L, S170T
modifications: synthetic sequence of chimeric LGIC
YFP fluorescence quenching using CNL001 ([1]; 1 nM CNL001, first column): 19.755%
YFP fluorescence quenching using CNL001 ([1]; 1 nM CNL001, second column): 65.484%
YFP fluorescence quenching using TC-5619/Bradanicline ([1]; 3 nM brd): 70.58%
YFP fluorescence quenching using Varenicline ([1]; 3 nM var, first column): −20.96
YFP fluorescence quenching using Varenicline ([1]; 3 nM var, second column): −19.953
YFP fluorescence quenching using CNL001 ([1]; 10 nM CNL001, first column): 79.024%
YFP fluorescence quenching using CNL001 ([1]; 10 nM CNL001, second column): 81.563%
YFP fluorescence quenching using TC-5619/Bradanicline ([1]; 30 nM brd): 80.71%
YFP fluorescence quenching using Facinicline ([1]; 30 nM fac): 76.45
YFP fluorescence quenching using Varenicline ([1]; 30 nM var, first column): −16.094
YFP fluorescence quenching using Varenicline ([1]; 30 nM var, second column): −21.502
YFP fluorescence quenching using CNL001 ([1]; 50 nM CNL001, first column): 81.926%
YFP fluorescence quenching using CNL001 ([1]; 50 nM CNL001, second column): 83.092%
YFP fluorescence quenching using ABT-126 ([1]; 50 nM abt): 55.83%
YFP fluorescence quenching using CNL001 ([1]; 100 nM CNL001, first column): 83%
YFP fluorescence quenching using CNL001 ([1]; 100 nM CNL001, second column): 83.811%
YFP fluorescence quenching using CNL002 ([1]; 100 nM CNL002): 73.48%
YFP fluorescence quenching using ABT-126 ([1]; 100 nM abt): 68.89%
YFP fluorescence quenching using AZD-0328 ([1]; 100 nM azd0328): 84.01%
YFP fluorescence quenching using Facinicline ([1]; 100 nM fac): 82.45
YFP fluorescence quenching using ABT-126 ([1]; 300 nM abt): 72.52%
YFP fluorescence quenching using AZD-0328 ([1]; 300 nM azd0328): 87.08%
YFP fluorescence quenching using TC-5619/Bradanicline ([1]; 300 nM brd): 80.66%
YFP fluorescence quenching using Facinicline ([1]; 300 nM fac): 71.09
YFP fluorescence quenching using Varenicline ([1]; 300 nM var, first column): 64.373
YFP fluorescence quenching using Varenicline ([1]; 300 nM var, second column): 71.198
YFP fluorescence quenching using Varenicline ([1]; 500 nM var, first column): 71.892
YFP fluorescence quenching using Varenicline ([1]; 500 nM var, second column): 73.53
YFP fluorescence quenching using CNL001 ([1]; 1 uM CNL001, first column): 81.834%
YFP fluorescence quenching using CNL001 ([1]; 1 uM CNL001, second column): 83.858%
YFP fluorescence quenching using CNL002 ([1]; 1 uM CNL002): 70.03%
YFP fluorescence quenching using ABT-126 ([1]; 1 uM abt): 70.96%
YFP fluorescence quenching using TC-6987 ([1]; 1 uM tc6987): 71.45
YFP fluorescence quenching using Varenicline ([1]; 1 uM var, first column): 75.461
YFP fluorescence quenching using Varenicline ([1]; 1 uM var, second column): 78.578
YFP fluorescence quenching using TC-6987 ([1]; 10 uM tc6987): 71.04
YFP fluorescence quenching using AZD-0328 ([1]; 30 uM azd0328): 87.27%
YFP fluorescence quenching using Facinicline ([1]; 30 uM fac): 69.41
YFP fluorescence quenching using TC-6987 ([1]; 500 uM tc6987): 66.2
percent quench of YFP fluorescence, 10 uM ach [1]: 82.91%
percent quench of YFP fluorescence, 30 uM ach ([1]; acetylcholine 30 uM): 82.53%
percent quench of YFP fluorescence, 50 uM ach [1]: 82.11%
percent quench of YFP fluorescence, 100 uM ach [1]: 83.68%
percent quench of YFP fluorescence, 1 mM ach [1]: 69.89%
percent quench of YFP fluorescence, 3 mM ach [1]: 78.12%

— patent publication US20240317834A1, “COMPOSITIONS AND METHODS FOR NEUROLOGICAL DISEASES” (CODA BIOTHERAPEUTICS, INC., priority 2020, published 2024)
